According to the supplement of paper PMC12338614:
± gives the uncertainty stated by the source.

B1: library; numbered along this chain (parent)
chain: MEVVDPQQLGMFTEGELMSVGMDTFIHRIDSTEVIYQPRRKRAKLIGKYLMGDLLGEGSYGKVKEVLDSETLCRRAVKILKKKKLRRIPNGEANVKKEIQLLRRLRHKNVIQLVDVLYNEEKQKMYMVMEYCVCGMQEMLDSVPEKRFPVCQAHGYFCQLIDGLEYLHSQGIVHKDIKPGNLLLTTGGTLKISDLGVAEALHPFAADDTCRTSQGSPAFQPPEIANGLDTFSGFKVDIWSAGVTLYNITTGLYPFEGDNIYKLFENIGKGSYAIPGDCGPPLSDLLKGMLEYEPAKRFSIRQIRQHSWFRKKHPPAEAPVPIPPSPDTKDRWRSMTVVPYLEDLHGADEDEDLFDIEDDIIYTQDFTVPGQVPEEEASHNGQRRGLPKAVCMNGTEAAQLSTKSRAEGRAPNPARKACSASSKIRRLSACKQQ

Variants of: B1
Assay: STK11 functional score (HeLa growth suppression), rescaled enrichment; synonymous median = 1, nonsense median = 0 (normalised score)
Conditions: with HeLa; variant type: missense
Experimental: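 Deep mutational scan (TileSeq/POPCode codon randomisation) of full-length codon-optimised STK11 cDNA integrated at a Bxb1 landing pad (AAVS1) in HeLa cells. Restoring functional STK11 suppresses HeLa proliferation. Variant frequencies were measured by NGS before and after about two weeks of growth. The error-corrected enrichment log-ratio was rescaled so that synonymous median = 1 and nonsense median = 0, scores above 1 were compressed, and codon-level and three biological replicate scores were combined; error is the bootstrapped standard error. Scale: synonymous median = 1, nonsense median = 0; below 0.5 = damaging.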

Variant	STK11 functional score
MEVVDPQQLGMFTEGELMSVGMDTFIHRIDSTEVIYQPRRKRAKLIGKYLMGDLLGEGSYGKVKEVLDSETLCRRAVKILKKKKLRRIPNGEANVKKEIQLLRRLRHKNVIQLVDVLYNEEKQKMYMVMEYCVCGMQEMLDSVPEKRFPVCQAHGYFCQLIDGLEYLHSQGIVHKDIKPGNLLLTTGGTLKISDLGVAEALHPFAADDTCRTSQGSPAFQPPEIANGLDTFSGFKVDIWSAGVTLYNITTGLYPFEGDNIYKLFENIGKGSYAIPGDCGPPLSDLLKGMLEYEPAKRFSIRQIRQHSWFRKKHPPAEAPVPIPPSPDLKDRWRSMTVVPYLEDLHGADEDEDLFDIEDDIIYTQDFTVPGQVPEEEASHNGQRRGLPKAVCMNGTEAAQLSTKSRAEGRAPNPARKACSASSKIRRLSACKQQ [T328L]	1.03 ± 0.62
MEVVDPQQLGMFTEGELMSVGMDTFIHRIDSTEVIYQPRRKRAKLIGKYLMGDLLGEGSYGKVKEVLDSETLCRRAVKILKKKKLRRIPNGEANVKKEIQLLRRLRHKNVIQLVDVLYNEEKQKMYMVMEYCVCGMQEMLDSVPEKRFPVCQAHGYFCQLIDGLEYLHSQGIVHKDIKPGNLLLTTGGTLKISDLGVAEALHPFAADDTCRTSQGSPAFQPPEIANGLDTFSGFKVDIWSAGVTLYNITTGLYPFEGDNIYKLFENIGKGSYAIPGDCGPPLSDLLKGMLEYEPAKRFSIRQIRQHSWFRKKHPPAEAPVPIPPSPDTKDRWRSMTVVPYLEDLHGADEDEDLFDIEDDIIYTQDFTVPGQVPEGEASHNGQRRGLPKAVCMNGTEAAQLSTKSRAEGRAPNPARKACSASSKIRRLSACKQQ [E375G]	1.49 ± 0.32
MEVVDPQQLGMFTEGELMSVGMDTFIHRIDSTEVIYQPRRKRAKLIGKYLMGDLLGEGSYGKVKEVLDSETLCRRAVKILKKKKLRRIPNGEANVKKEIQLLRRLRHKNVIQLVDVLYNEEKQKMYMVMEYCVCGMQEMLDSVPEKRFPVCQAHGYFCQLIDGLEYLHSQGIVHKDIKPGNLLLTTGGTLKISDLGVAEALHPFAADDTCRTSQGSPAFQPPEIANGLDTFSGFKVDIWSAGVTLYNITTGLYPFEGDNIYKLFENIGKGSYAIPGDCGPPLSDLLKGMLEYEPAKRFSIRQIRQHSWFRKKHPPAEAPVPIPPSPDTKDRWRSMMVVPYLEDLHGADEDEDLFDIEDDIIYTQDFTVPGQVPEEEASHNGQRRGLPKAVCMNGTEAAQLSTKSRAEGRAPNPARKACSASSKIRRLSACKQQ [T336M]	0.732 ± 0.077
MEVVDPQQLGMFTEGELMSVGMDTFIHRIDSTEVIYQPRRKRAKLIGKYLMGDLLGEGSYGKVKEVLDSETLCRRAVKILKKKKLRRIPNGEAMVKKEIQLLRRLRHKNVIQLVDVLYNEEKQKMYMVMEYCVCGMQEMLDSVPEKRFPVCQAHGYFCQLIDGLEYLHSQGIVHKDIKPGNLLLTTGGTLKISDLGVAEALHPFAADDTCRTSQGSPAFQPPEIANGLDTFSGFKVDIWSAGVTLYNITTGLYPFEGDNIYKLFENIGKGSYAIPGDCGPPLSDLLKGMLEYEPAKRFSIRQIRQHSWFRKKHPPAEAPVPIPPSPDTKDRWRSMTVVPYLEDLHGADEDEDLFDIEDDIIYTQDFTVPGQVPEEEASHNGQRRGLPKAVCMNGTEAAQLSTKSRAEGRAPNPARKACSASSKIRRLSACKQQ [N94M]	0.437 ± 0.077
MEVVDPQQLGMFTEGELMSVGMDTFIHRIDSTEVIYQPRRKRAKLIGKYLMGDLLGEGSYGKVKEVLDSETLCRRAVKILKKKKLRRIPNGEANVKKEIQLLRRLRHKNVIQLVDVLYNEEKQKMYMVMEYCVCGMQEMLDSVPEKRFPVCQAHGYFCQLIDGLEYLHSQGIVHKDIKPGNLLLTTGGTLKISDLGVAEALHPFAADDTCRTSQGNPAFQPPEIANGLDTFSGFKVDIWSAGVTLYNITTGLYPFEGDNIYKLFENIGKGSYAIPGDCGPPLSDLLKGMLEYEPAKRFSIRQIRQHSWFRKKHPPAEAPVPIPPSPDTKDRWRSMTVVPYLEDLHGADEDEDLFDIEDDIIYTQDFTVPGQVPEEEASHNGQRRGLPKAVCMNGTEAAQLSTKSRAEGRAPNPARKACSASSKIRRLSACKQQ [S216N]	0.349 ± 0.12
MEVVDPQQLGMFTEGELMSVGMDTFIHRIDSTEVIYQPRRKRAKLIGKYLMGDLLGEGSYGKVKEVLDSETLCRRAVKILKKKKLRRIPNGEANVKKEIQLLRRLRHKNVIQLVDVLYNEEKQKMYMVMEYCVCGMQEMLDSVPEKRFPVCQAHGYFCQLIDGLEYLHSQGIVHKDIKPGNLLLTTGGTLKISDLGVAEALHPFAADDTCRTSQGSPAFQPPEIANGLDTFSGFKVDIWSAGVTLYNITTGLYPFEGDNIYKLFENIGKGSYAIPGDCGPPLSDLLKGMLEYEPAKRFSIRQIRQHSWFRIKHPPAEAPVPIPPSPDTKDRWRSMTVVPYLEDLHGADEDEDLFDIEDDIIYTQDFTVPGQVPEEEASHNGQRRGLPKAVCMNGTEAAQLSTKSRAEGRAPNPARKACSASSKIRRLSACKQQ [K311I]	1.26 ± 0.24
MEVVDPQQLGMFTEGELMSVGMDTFIHRIDSTEVIYQPRRKRAKLIGKYLMGDLLGEGSYGKVKEVLDSETLCRRAVKILKKKKLRRIPNGEANVKKEIQLLRRLRHKNVIQLVDVLYNEEKQKMYMVMEYCVCGMQEMLDSVPEKRFPVCQAHGYFCQLIDGLEYLHSQGIVHKDIKPGNLLLTTGGTLKISDLGVAEALHPFAADDTCRTSQGSPAFQPPEIANGLDTFSGFKVDIWSAGVTLYNITTGLYPFEGDNIYKLFENIGKGSYAIPGDCGPPLSDLLKGMLEYEPAKRFSIRQIRQHSWFRKKHPPAEAPVPIPPSPDTKDRWRSMTVVPYLEDLHGADEDEDLFDIEDDIIYTQDFTVPGQVPEEEASHNGQRRGLPKAVCMNGTEAAQLSTKSRAEGRAPNPFRKACSASSKIRRLSACKQQ [A414F]	1.38 ± 0.14
MEVVDPQQLGMFTEGELMSVGMDTFIHRIDSTEVIYQPRLKRAKLIGKYLMGDLLGEGSYGKVKEVLDSETLCRRAVKILKKKKLRRIPNGEANVKKEIQLLRRLRHKNVIQLVDVLYNEEKQKMYMVMEYCVCGMQEMLDSVPEKRFPVCQAHGYFCQLIDGLEYLHSQGIVHKDIKPGNLLLTTGGTLKISDLGVAEALHPFAADDTCRTSQGSPAFQPPEIANGLDTFSGFKVDIWSAGVTLYNITTGLYPFEGDNIYKLFENIGKGSYAIPGDCGPPLSDLLKGMLEYEPAKRFSIRQIRQHSWFRKKHPPAEAPVPIPPSPDTKDRWRSMTVVPYLEDLHGADEDEDLFDIEDDIIYTQDFTVPGQVPEEEASHNGQRRGLPKAVCMNGTEAAQLSTKSRAEGRAPNPARKACSASSKIRRLSACKQQ [R40L]	0.804 ± 0.16
MEVVDPQQLGMFTEGELMSVGMDTFIHRIDSTEVIYQPREKRAKLIGKYLMGDLLGEGSYGKVKEVLDSETLCRRAVKILKKKKLRRIPNGEANVKKEIQLLRRLRHKNVIQLVDVLYNEEKQKMYMVMEYCVCGMQEMLDSVPEKRFPVCQAHGYFCQLIDGLEYLHSQGIVHKDIKPGNLLLTTGGTLKISDLGVAEALHPFAADDTCRTSQGSPAFQPPEIANGLDTFSGFKVDIWSAGVTLYNITTGLYPFEGDNIYKLFENIGKGSYAIPGDCGPPLSDLLKGMLEYEPAKRFSIRQIRQHSWFRKKHPPAEAPVPIPPSPDTKDRWRSMTVVPYLEDLHGADEDEDLFDIEDDIIYTQDFTVPGQVPEEEASHNGQRRGLPKAVCMNGTEAAQLSTKSRAEGRAPNPARKACSASSKIRRLSACKQQ [R40E]	1.41 ± 0.47
MEVVDPQQLGMFTEGELMSVGMDTFIHRIDSTEVIYQPRRKRAKLIGKYLMGDLLGEGSYGKVKEVLDSETLCRRAVKILKKKKSRRIPNGEANVKKEIQLLRRLRHKNVIQLVDVLYNEEKQKMYMVMEYCVCGMQEMLDSVPEKRFPVCQAHGYFCQLIDGLEYLHSQGIVHKDIKPGNLLLTTGGTLKISDLGVAEALHPFAADDTCRTSQGSPAFQPPEIANGLDTFSGFKVDIWSAGVTLYNITTGLYPFEGDNIYKLFENIGKGSYAIPGDCGPPLSDLLKGMLEYEPAKRFSIRQIRQHSWFRKKHPPAEAPVPIPPSPDTKDRWRSMTVVPYLEDLHGADEDEDLFDIEDDIIYTQDFTVPGQVPEEEASHNGQRRGLPKAVCMNGTEAAQLSTKSRAEGRAPNPARKACSASSKIRRLSACKQQ [L85S]	1.29 ± 0.17
MEVVDPQQLGMFTEGELMSVGMDTFIHRIDSTEVIYQPRRKRAKLIGKYLMGDLLGEGSYGKVKEVLDSETLCRRAVKILKKKKLRRIPNGEANVKKEIQLLRRLRHKNVIQLVDVLYNEEKQKMYMVMEYCVCGMQEMLDSVPEKRFPVCQAHGYFCQLIDGLEYLHSQGIVHKDIKPGNLLLTTGGTLKISDLGVAEALHPFAADDTCRTSQGSPAFQPPEIANGLDTFSGFKVDIWSAGVTLYNITTGLYPFEGDNIYKLFENIGKGSYAIPGDCGPPLSDLLKGMLEYEPAKRFEIRQIRQHSWFRKKHPPAEAPVPIPPSPDTKDRWRSMTVVPYLEDLHGADEDEDLFDIEDDIIYTQDFTVPGQVPEEEASHNGQRRGLPKAVCMNGTEAAQLSTKSRAEGRAPNPARKACSASSKIRRLSACKQQ [S299E]	1.56 ± 0.15
MEVVDPQQLGMFTEGELLSVGMDTFIHRIDSTEVIYQPRRKRAKLIGKYLMGDLLGEGSYGKVKEVLDSETLCRRAVKILKKKKLRRIPNGEANVKKEIQLLRRLRHKNVIQLVDVLYNEEKQKMYMVMEYCVCGMQEMLDSVPEKRFPVCQAHGYFCQLIDGLEYLHSQGIVHKDIKPGNLLLTTGGTLKISDLGVAEALHPFAADDTCRTSQGSPAFQPPEIANGLDTFSGFKVDIWSAGVTLYNITTGLYPFEGDNIYKLFENIGKGSYAIPGDCGPPLSDLLKGMLEYEPAKRFSIRQIRQHSWFRKKHPPAEAPVPIPPSPDTKDRWRSMTVVPYLEDLHGADEDEDLFDIEDDIIYTQDFTVPGQVPEEEASHNGQRRGLPKAVCMNGTEAAQLSTKSRAEGRAPNPARKACSASSKIRRLSACKQQ [M18L]	1.08 ± 0.34
MEVVDPQQLGMFTEGELMSVGMDTFIHRIDSTEVIYQPRRKRAKLIGKYLMGDLLGEGSYGKVKEVLDSETLCRRAVKILKKKKLRRIPNGEANVTKEIQLLRRLRHKNVIQLVDVLYNEEKQKMYMVMEYCVCGMQEMLDSVPEKRFPVCQAHGYFCQLIDGLEYLHSQGIVHKDIKPGNLLLTTGGTLKISDLGVAEALHPFAADDTCRTSQGSPAFQPPEIANGLDTFSGFKVDIWSAGVTLYNITTGLYPFEGDNIYKLFENIGKGSYAIPGDCGPPLSDLLKGMLEYEPAKRFSIRQIRQHSWFRKKHPPAEAPVPIPPSPDTKDRWRSMTVVPYLEDLHGADEDEDLFDIEDDIIYTQDFTVPGQVPEEEASHNGQRRGLPKAVCMNGTEAAQLSTKSRAEGRAPNPARKACSASSKIRRLSACKQQ [K96T]	1.05 ± 0.082
MEVVDPQQLGMFTEGELMSVGMDTFIHRIDSTEVIYQPRRKRAKLIGKYLMGDLLGEGSYGKVKEVLDSETLCRRAVKILKKKKLRRIPNGEANVKKEIQLLRRLRHKNVIQLVDVLYNEEKQKMYMVMEYCVCGMQEMLDSVPEKRFPVCQAHGYFCQLIDGLEYLHSQGIVHKDIKPGNLLLTTGGTLKISDLGVAEALHPFAADDTCRTSQGSPAFQPPEIANGLDTFSGFKVDIWSAGVTLYNITTGLYPFEGDNIYKLFENIGKGSYAIPGDCGPPLSDLLKGMLEYEPAKRFSIRQIRQHSWFRKKHPPAEAPVPIPPSPDTKDRWRSMTVVPYLEDLHGADEDEDLFDIEDDIIYTQDFTVPGQVPEEEASHNGQRRGLPKAVCMNGTEAAQLSTKSRAEGRAPNPARKACSASSKIRRWSACKQQ [L427W]	1.53 ± 0.17
